Measured values reported in the nanobody polyreactivity screen of Harvey et al. (2022).

Test: yeast display, Sf9 membrane polyspecificity reagent, FACS + sequencing; frameworks hold sequencing errors
Method in brief: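 Sorting gates, low and high (top ~1%), were placed on anti-HA fluorescence to track expression and on streptavidin fluorescence to track reagent binding. A clone's polyreactivity label is taken from the gate it came out of. The reagent was 10% biotinylated, detergent-solubilized Sf9 membrane, applied for 1 hour at 4 °C to galactose-induced yeast display cells.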

Sequence | polyreactivity (PSR sort gate)
QDQLVESGGGLVQAGGSLRLSCAAYGSTSYTNAMGWYRQAPGKERELVAGITRSGDSTYYADSVKGRFTISRDTAKNTVYLQMKSLKPEDTAVYYCAADIGDYWLGYYTGYYYLGQGTQVTVSS | high polyreactivity
QVQLVESGGGLVQSGGSLRLSCAASGRTFFKYSMGWYRQAPGKEREMVATITSSGGITYADSVKGRFTISRDNAKNSVYLQMNSLKPEDTAVYYCNARVWVTHYSELNYWGQGTQVTVSS | low polyreactivity
QVQLVESGGGLVQAGGSLRLSCAASGRTSVLYAMGWYRQAPGKEREFVAAITWNSGSTYYADSVKGRFTISRDNAKNTVYLQMNSLKPEDTAVYYCNADYYFSSYRSTYDYWGQGTQVTVSS | low polyreactivity
QVQLVESGGGLVQAGGSLRLSCAASGNILIGNVMGWYRQAPGKERELVAAITSGGDTYYADSVKGRFTISRDNAKNTVNLQMNSLKPEDTAVYYCAADRPGQPKYEYWGQGTQVTVSS | low polyreactivity
QVQLVESGGGLVQAGGSLRLSCAASGFIFRYYAMGWYRQEPGKERELVAAITSRGSSTYYADSVKGRFTISRDNAKNTVYLQMNSLKPEDTAVYYCAARLRGDYVRYDYWGQGTQVTVSS | high polyreactivity
QVQLVESGGGLVQAGGSLRLSCAASGSTFWAYVMGWYRQAPGKERELVASISSGGSTNYADSVKGRFTISRDNAKNTVYLQMNSLKPEDTAVYYCAKRPYPYKYDYWGQGTQVTVSS | high polyreactivity
QVQLVESGGGLVQAGGSLRLSCAASGRTFGYYVMGWSRQAPGKETELVAAISNTDSTYYADSVKGRFTISRDNAKNTVYLQMNSLKPEDTAVYYCARDDAYSDFDYDYWGQGTQVTVSS | low polyreactivity
QVQLVESGGGLVQAGGSLRLSCASSGLIFPYNAMGWYRKAPGKERELVAAIDSGVTTYYADSVKGRFTISRDNAKNTVYLQMNSLKPEDTAVYYCAAVGLPGPEGDSWGQGTQVTVSS | low polyreactivity
QVQLVESGGGLVQAGGSLRLSCAASGNTFIEYAMGWYRQAPGKERELVAAINWNGGSTYYADSVKGRFTISRDNAKNTVYLQMNSLKPEDTAVYYCYADYPQYWDYRTSDYTYGTYNYWGQGTQVTVSS | low polyreactivity
QVQLVESGGGLVQAGGSLRLRCAASGSTFGYYSMGWYRQAPGKEMELVAAISKSGGRTYYADSVKGRFTISRDTAKNTVYVQMNSLKPEDTAVYYCNKANGGDEVDYWGQGTQVTVSS | high polyreactivity
QVQLVESGGGLVQAGGSLRLSCAASGRIFSRYAMGWYRQAPGKERELVAAISCNGCSTYYADSVKGRFTISRDNAKNTVYLQMNSLKPEDTAVYYCAAYRPGPYAAYGYWGQGTQVTVSS | high polyreactivity
QVQLVESGGGLVQAGGSLRLSCAASGITLRRNAMGWYRQAPGKERELVARISTTGGSTYYADSVKGRFTISRDNAKNTVYLQMNSLKPEDTAVYYCAARAPLGFWHYDYWGQGTQVTVSS | high polyreactivity
QVQLVESGGGLVQAGGSLRLSCAASGSIYRRNAMGWYRKAPRKERELVAAISSNGGSTYYADSVKGRFTISRDNAMNTVYLQMNSLKPEDSAVYYCAASPSGWRYDYWGQGTQVTVSS | high polyreactivity
QVQLVESGGGLVQAGGSLRLSCAASGRIIGYYAMGWYRQAPGKERELGAAITRGGSTNYADSVKGRFTISRDNAKNTVYLQMNSLKPEDTAVYYCAADLARYGKRYDYWGQGTQVTVSS | low polyreactivity
QVQLVESGGGLVQAGGSLRLSCAASGSILYVNAMGWYRQATGKERELVAAITRTGGSTYYADSVKGRFTISRDNAKNTVYLQMNSLKPEDTAVYYCNAASSLPGYDYWGQGTQVTVSS | high polyreactivity
QVQLVESGGGLVQAGGSLRLSCAASGLIFVSYAMGWYRQAPGKERELVAAISSGGSTYYADSVKGRFTISRDNAKNTVYLQMNSLKPEDTAVYYCAAEYVFRGYVGYDYWGQGTQVTVSS | low polyreactivity
QVQLVESGGGLVQAGGSLRLSCAASGFTFPYNAMGWYRQAPGKERELVAAISSTGGITYYADSVKGRFTISRDNAKNTVYLQLNSLKPEDTAVYYCGWYDYWGLGTQVTVSS | low polyreactivity
QVQLVESGGGLVQAGGSLRLSSAASGFTFRRYAMGWYRQAPGKERELVAAISTSGGNTYYADSVKGRFTISRDNAKNTVYLQMNSLKPEDTAVYYCYARRKDNGHGTPFDDYWGQGTQVTVSS | high polyreactivity
QVQLVESGGGLVQAGGTLRLSCAASGPILSRNAMAWYRQAPGKERELVAAISRSGGSTYYADSVKGRFTISRDNAKNTVYFQMNSLKPEDTAVYYSATRYMGRLDYWGQGTQVTVSS | high polyreactivity
QLQLVESGGGLVQAGGSLRLSCAASGRTFERNAMGWYRQARGQERELVAAITWSGVSTYYADSVKGRFTISRDNAKNTVYLQMNSLKPEDTAVYYCAADWDWRFHRMNYWGQGTQVTVSS | low polyreactivity
QVQLVESGGGLVQAGGTLRLSCAASGFIFCTYAMGWSRQAPGKERELVAAISSRDVSTYYADSVKGRFTISRDNAKNTVYLQMNSLKPEDTAVYYCAAEDPYYYPYEYWGQGTQVTVSS | high polyreactivity
QVQLGESGGGLVQAGGSLRLSCAASGGIFAENAIGRYRQAPGKERELVAAINGGGSTKYADSVKGRFTISRDNAKNTVYLQMNSLKPEDTAVYYCAADPSVPRQVDYWGQGTLVTVSS | low polyreactivity

Sequence | polyreactivity (PSR sort gate)
QVQLVESGGGLVQAGGSLRLSCAASGYIFSYYAMGWYRQAPGKEREFVAAIRWRGGSTYYADSVKGRFTISRDNAKNTVYLQMNSLKPEDTAVYYCAAGPGTSYYWGQGTQVTVSS | high polyreactivity
QVQLVESGGGLVQAGGSLRLSCAAAGIISPFYAMGWYRQAPGKERELVADISTGGTTTYADSVKGRFTISRDNAKNTVYLQMNSLKPVDTAVYYCNAEVCLTYYWIVWASYDYWGQGTQVTVSS | low polyreactivity
QVQLVESGGGLVQAGGSLRLSCAASGSTFAVNVMGWYRQAPGKERELVATITYRDGRTYYADSVKGRFTISRDIAKYTVFLQMNSLKPEDTAVYYCAADDEYTQEAEMDSWGQGTQVTVSS | low polyreactivity
QVQIVESGGGLVQAGRSLRLSCAASGRTFYRNAMGWYRQAPGKERELVAAITWRTGNTYFADSVKGRFTISRDNAKNTVYLQMNSLKQEDTAVYYCNRVPYYGHPFRVSGDYWGQCTQVTVSS | low polyreactivity
QVQLVESGGGLVQAGGSLRLSCAASGSIFPIYAMGWYRQAPGKERELVAGIRGRGGRTYYADSVKGRFTISRDNAKNTVYLQMNSLKPEDTAVYYCAKANLTPQGRGDYDYWGQGTQVTVSS | high polyreactivity
QVQLVESGGGLVQAGGSLRLSCDASGSIFDGYGMGWYRQAPGKERELVASITWNDGSTYYADSVKGRFTISRDNAKNTVYLQMNSLKPEETAVYYCAADQWGYEYDYWGQGTQVTVSS | low polyreactivity
QVQLVESGVGLVQAAGSLRLSCASSGIICGEYAMGWYRQAPGNERELVAAISGSGSRTYYADSVKVRFTISRDIAKNTVFLQMNRLKPEDTAVYYCNSRRYIYNYDYWGQGTQVTVSS | high polyreactivity
QVQLVESGGGLVQAGGSLRLSCAASGRTFRVNAMGWYRQAPGKERELVASITYSGGSTYYADSVKGRFTISRDNAKNTVYLQMNSLKQEDTAVYYCAADWYRSPYDYWGQGTQVTVSS | low polyreactivity
QDHLVESGGGLVQAGGSLRLSCAASRRTLLRYAMGWYRQAPGKERELVAAISSSGGRTYYADSVKGRFTISRDNAKNTVYLQMNSLKPEDTAVYYCAAKSSYVGHDYWGQGTQVTVSS | high polyreactivity
QVQLVESGGGLVQAGGSLRLSCAASGFIFGYNAMGWYRQAPGKERELVAAISYSGVSTYYADSVKGRFTISRDNAKNTVYLQMNSLKPEDTAVYYCAARPIGYKPRGEYDYWGQGTQVTVSS | high polyreactivity
QVQLVESGGGLLQAGGSLRLSCAASGRTFVWNAKGWYRQAPGKERELVAPITNDGSTNYADSVKGRFTISRDNAKNTVYLQMNSLKPEDTAVYYCAKRPRGSRIVPGGYDSWGQGTQVTVSS | low polyreactivity
QVQLVESGGGLVQAGGSLRLSCAASGITFFLYAMGWYRQAPGKERELVAVISASGGSTYYADSVKGRFTISRDNAKNTVYLQMNSLKPEDTAVYYCAAGYRFYGFYALYYWGQGTQVTVSS | high polyreactivity
QVQLVESGGGLVQAGGSLRVSCAASGRTFARYALAWYRQAPGKERELVAAISRGGTTNYADSVKGRFTISRDNAKNTVYLQMNSLKPEDTAVDYCNRDFHLSHLSSARLDYWGQGTQVTVSS | low polyreactivity
QVQLVESGGGLVQAGGSLRLSCAASGFTFTYYAMGWYRQAPGKERELVAAISASGDSTYYADSVKGRFTISRDNAKNTVYLQMNILKPEDTAVYYCAALYWYSRSSWDYDYWGQGTQVTVSS | high polyreactivity
QVQLVESGGGLVQAGGSLRLSCAASGFIFGFYAMGWYIQAPGKERELVAAISGGGGRTNYADSVKGRFTISRDYAKNTVYLQMNSLNPEDTAVYYCAATPGRRRYRYYYWGQGTQVTVSS | high polyreactivity
QVQLVESGGGLVQAGGSLRLSCAASGIFYRYAMGWYRQAPGKEREFVAAISSTGGSTYYADSVKGRFTISRDNAKNSVYLQMNSLKPEDTAVYYCAKRGSRSGRSDYWGQGTQVTVSS | low polyreactivity
QVQLVESGGGLVQAGGSLLLSCDASGGTLDYYVMGWYRQAPGKERELVAAISSSGGSTYYADSVKGRFTISRDNAKNTVYLQMNCLNPEDTAVYYCAGDPSPYGDEYDYWVQGTQVTVSS | low polyreactivity
QVQLVESGGGLVQAGCILRLSCDASGRTFAPYAMGWYRQAPGKAWELVAAITNGGSPSYADSVKGRFTISRDNAKNTVYLEMNSLKREDTAVFYCAADIVSSTDYPFEYWGQGTQVTVSS | low polyreactivity
QVQLQESGGGLVQAGGSLRQSCAASGYIFPYYSMGWYRQAPGKERGLVACIAAGTTTNYADSVKGRFTISRDNAKNTVYLQMISLKPEDAAVYYCAALNAFNTGHWYWGQGTQVTVSS | low polyreactivity
QVHLVESGGGIVQAGGSLRLSCAASGSTFGYYAMGWYRQAPGKERELVAAITTRGTRTYADSVKGRFTISRDNAKNTVYLQMNSLKPEDTAVYYCNAYEWGDFVLYTTDYDYWGQGTHVTVSS | high polyreactivity
QVQLVESGGGLVQAGGSLRLSCAASGSTFPVYAMGWYRQAPGKERELVATISYSGGSTNYADSVKGRFTISRDNAKNTVYLQMNSLKPEDTAVYYCAKRYKRYVYWRSHGDYNYWGQGTQVTVSS | high polyreactivity
